The source of these data is PMC3556126, “The site-specific integration reaction of Listeria phage A118 integrase, a serine recombinase”.

A value given as a limit tells only on which side of the number the result lay.

The target of series [1] is Listeria phage A118 integrase, N-terminally histidine tagged, full-length (Listeria phage A118). Briefly: SEC; FPLC Superdex-200 10/300 GL; 20 mM HEPES pH 7.5, 1 M NaCl, 1 mM DTT, 10% glycerol; 0.4 ml/minute; 23°C. For orientation: Size exclusion chromatography separates by hydrodynamic size, large species first.
Series [2] addresses T1, A118 integrase (HisInt) (Listeria monocytogenes phage A118, UniProt Q8Y4U8 1-452).
T1 sequence: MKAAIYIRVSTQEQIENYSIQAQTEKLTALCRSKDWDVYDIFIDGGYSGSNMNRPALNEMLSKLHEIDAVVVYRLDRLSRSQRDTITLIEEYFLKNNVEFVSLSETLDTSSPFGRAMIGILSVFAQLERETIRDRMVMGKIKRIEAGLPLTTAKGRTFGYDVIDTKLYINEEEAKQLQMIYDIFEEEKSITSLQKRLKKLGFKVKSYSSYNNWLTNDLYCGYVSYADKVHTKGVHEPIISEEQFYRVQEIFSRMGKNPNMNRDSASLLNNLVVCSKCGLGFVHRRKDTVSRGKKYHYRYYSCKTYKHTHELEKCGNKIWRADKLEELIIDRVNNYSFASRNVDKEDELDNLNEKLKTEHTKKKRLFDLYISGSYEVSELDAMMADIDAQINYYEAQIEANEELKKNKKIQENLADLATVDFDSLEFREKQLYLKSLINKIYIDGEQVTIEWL
Put plainly: EMSA. The following applies: 20 mM HEPES pH 7.5, 100 mM NaCl, 0.1 mg/ml BSA, 5 mM spermidine, 5 mM DTT, 5% glycerol, 50 ug/ml salmon sperm DNA, about 0.1 pmol probe in 10 ul, 30 C 30 min …. (In EMSA bound probe runs differently from free probe, usually more slowly.)

Series [3] addresses T2, A118 integrase C-terminal domain (HisInt158-452) (Listeria monocytogenes phage A118) (UniProt Q8Y4U8).
T2 sequence: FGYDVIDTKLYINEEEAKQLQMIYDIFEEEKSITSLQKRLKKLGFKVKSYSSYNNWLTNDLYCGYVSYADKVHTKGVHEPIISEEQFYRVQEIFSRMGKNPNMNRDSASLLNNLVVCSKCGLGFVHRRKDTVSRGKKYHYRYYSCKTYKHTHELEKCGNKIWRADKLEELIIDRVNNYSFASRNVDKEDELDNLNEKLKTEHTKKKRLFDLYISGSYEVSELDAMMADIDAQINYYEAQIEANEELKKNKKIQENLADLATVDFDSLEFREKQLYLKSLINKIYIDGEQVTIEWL
Briefly: EMSA. The note with it: mainly complex I, 20 mM HEPES pH 7.5, 100 mM NaCl, 0.1 mg/ml BSA, 5 mM spermidine, 5 mM DTT, 5% glycerol, 50 ug/ml salmon sperm DNA, about 0.1 pmol probe in 10 ul, 30 C 30 min ….

For series [4], the target named is T1, A118 integrase (HisInt). Briefly: protease protection; twofold molar excess of DNA; chymotrypsin or proteinase K; 20 mM HEPES pH 7.5, 100 mM NaCl, 0.1 mg/ml BSA, 5 mM spermidine, 5 mM DTT, 5% glycerol, 50 ug/ml salmon sperm DNA, about 0.1 pmol probe in 10 ul, 30 C 30 min; 6% PAGE in 0.5x TBE at room temperature. The following applies: protein: recombinant; tags: N-terminal His (pET15b); chain copies: 2; blunt.

Series [5] deals with T1, A118 integrase (HisInt). Briefly: EMSA; 810 nM; 20 mM HEPES pH 7.5, 100 mM NaCl, 0.1 mg/ml BSA, 5 mM spermidine, 5 mM DTT, 5% glycerol, 50 ug/ml salmon sperm DNA, about 0.1 pmol probe in 10 ul, 30 C 30 min; 6% PAGE in 0.5x TBE at room temperature. The following applies: protein: recombinant; tags: N-terminal His (pET15b); chain copies: 2; label: 32P; blunt.
Series [6] has as its target T3, A118 integrase C-terminal domain (HisInt158-452) (Listeria monocytogenes phage A118, UniProt Q8Y4U8 158-452).
T3 sequence: T2 sequence
The description is as above. The note with it: protein: recombinant; tags: N-terminal His (pET15b); label: 32P; blunt.

Series [7] deals with T1, A118 integrase (HisInt). Put plainly: EMSA; predominantly dimer; 20 mM HEPES pH 7.5, 100 mM NaCl, 0.1 mg/ml BSA, 5 mM spermidine, 5 mM DTT, 5% glycerol, 50 ug/ml salmon sperm DNA, about 0.1 pmol probe in 10 ul, 30 C 30 min; 6% PAGE in 0.5x TBE at room temperature. The following applies: protein: recombinant; tags: N-terminal His (pET15b); chain copies: 2; label: 32P; blunt.

Setting [8] is: dimer complex, apparent, panel assignment by order.

“Listeria phage A118 integrase, N-terminally histidine tagged, full-length (enzyme)” showed a stoichiometry N in series [1] of 2.

Take attB 100 bp: the Kd is 72 nM in the series with A118 integrase (HisInt) [2] and over 800 nM in series [3] (binds much less than attP). On to attL 100 bp, for which the Kd in the series with A118 integrase (HisInt) [2] (setting [8]) was found to be 75 nM. Take attP 100 bp: the Kd amounted to 48 nM with A118 integrase (HisInt) [2] and 145 nM in series [3]. attR 100 bp: the Kd in the series with A118 integrase (HisInt) [2] (setting [8]) was 60 nM.

B1: attP 50 bp (dsDNA)
DNA 1: TTTAGTTCCTCGTTTTCTCTCGTTGGAAGAAGAAGAAACGAGAAACTAAA
DNA 2: TTTAGTTTCTCGTTTCTTCTTCTTCCAACGAGAGAAAACGAGGAACTAAA
As for B1, in the series with A118 integrase (HisInt) [4], the binding result is listed as “binds”.

B2: attP -oP' half-site (dsDNA)
DNA 1: GCCCGACCAAGTTCGCGCAGGAGGGGAAGAAGAAGAAACGAGAAACTAAA
DNA 2: TTTAGTTTCTCGTTTCTTCTTCTTCCCCTCCTGCGCGAACTTGGTCGGGC
Regarding B2, the binding result (with A118 integrase (HisInt) [5]; in series [6]) was “no binding” throughout.

B3: attP Po- half-site (dsDNA)
DNA 1: TTTAGTTCCTCGTTTTCTCTCGTTGGACTCCTCCTCGCTCGTCCCAGCCC
DNA 2: GGGCTGGGACGAGCGAGGAGGAGTCCAACGAGAGAAAACGAGGAACTAAA
Regarding B3, the Kd with A118 integrase (HisInt) [7] was about 1000 nM.

B4: attB -oB' half-site (dsDNA)
DNA 1: CCGCGCATAGGAGGAACCCTGGGACGCAAAGAGGGAACTAAACA
DNA 2: TGTTTAGTTCCCTCTTTGCGTCCCAGGGTTCCTCCTATGCGCGG
With B4, the binding result with A118 integrase (HisInt) [5] is “no binding”.

For orientation: stoichiometry N means the number of molecules, sites or subunits per partner or assembly.
